Data from patent US20190091326A1.

Experiments:
[1] = target: ZM233 mutant + N156; test: ELISA, PG9 titrated, absorbance 490 nm
[2] = target: ZM233 mutant - N156; test: ELISA, PG9 titrated, absorbance 490 nm
[3] = target: Bal.01 V1/V2 wt (GnTI-); test: ELISA; table row Bal.01 V1/V2 wt, GnTI-
[4] = target: 108060 I169K/E172V/T161M/N156I/S164G/D167G V1/V2 scaffold, gD-tagged, produced in normal 293 HEK cells (herpes simplex virus 1; HIV-1 isolate 108060); test: ELISA; table row 108060 V1/V2.eng1*, column 293
[5] = target: JRFL-E168K V1/V2 scaffold, wildtype, gD-tagged, produced in normal 293 HEK cells (herpes simplex virus 1; HIV-1 isolate JRFL) (UniProt Q69091); test: ELISA; table row JRFL-E168K V1/V2 wt, column 293
[6] = target: 108060-I169K V1/V2 scaffold, gD-tagged, produced in GnTI- 293 HEK cells (herpes simplex virus 1; HIV-1 isolate 108060); test: ELISA; table row 108060 V1/V2 I169K, GnTI-
[7] = target: 108060 I169K/E172V/T161M/N156I/S164G/D167G V1/V2 scaffold, gD-tagged, produced in normal 293 HEK cells (herpes simplex virus 1; HIV-1 isolate 108060); test: capture ELISA on 34.1 anti-gD; purified scaffold made in 293 cells
[8] = target: A244 V1/V2 scaffold, engineered, gD-tagged, produced in normal 293 HEK cells (herpes simplex virus 1; HIV-1 isolate A244) (UniProt Q69091); test: as above
[9] = target: JRFL-E168K V1/V2 scaffold, engineered, gD-tagged, produced in normal 293 HEK cells (herpes simplex virus 1; HIV-1 isolate JRFL); test: as above
[10] = target: MN V1/V2 scaffold, engineered, gD-tagged, produced in normal 293 HEK cells (herpes simplex virus 1; HIV-1 isolate MN); test: as above
[11] = target: ZM233 V1/V2 scaffold, engineered, gD-tagged, produced in normal 293 HEK cells (herpes simplex virus 1; HIV-1 isolate ZM233); test: as above
[12] = target: 108060 I169K/E172V/T161M/N156I/S164G/D167G V1/V2 scaffold, gD-tagged, produced in GnTI- 293 HEK cells (herpes simplex virus 1; HIV-1 isolate 108060); test: capture ELISA on 34.1 anti-gD; purified scaffold made in GnTI- cells
[13] = target: 108060 I169K/E172V/T161M/N156I/S164P/L165G V1/V2 scaffold, gD-tagged, produced in GnTI- 293 HEK cells (herpes simplex virus 1; HIV-1 isolate 108060); test: as above
[14] = target: JRFL-E168K V1/V2 scaffold, engineered, gD-tagged, produced in GnTI- 293 HEK cells (herpes simplex virus 1; HIV-1 isolate JRFL); test: as above
[15] = target: MN V1/V2 scaffold, engineered, gD-tagged, produced in GnTI- 293 HEK cells (herpes simplex virus 1; HIV-1 isolate MN); test: as above
[16] = target: A244 V1/V2 scaffold, wildtype (unmutated), Strep-tag/6x Histidine-tag, expressed in GnTI- cells (HIV-1 isolate A244); test: SPR (Biacore 3000), PG9 captured by anti-human Fc at about 100 RU, scaffold flowed, 1:1 Langmuir fit

PG9 monoclonal antibody
EC50 (read off the curve) [1]: 0.1 µg/mL
EC50 (read off the curve) [2]: 0.03 µg/mL
EC50 [3]: 0.0802 µg/mL
EC50 [4]: 0.093 µg/mL
EC50 [5]: > 10 µg/mL
EC50 [6]: 0.679 µg/mL
EC50 [7]: 0.093 µg/mL
EC50 [8]: 0.0991 µg/mL
EC50 [9]: 0.0473 µg/mL
EC50 [10]: 0.0274 µg/mL
EC50 [11]: 0.00227 µg/mL
EC50 [12]: 0.0068 µg/mL
EC50 [13]: 0.00834 µg/mL
EC50 [14]: 0.013 µg/mL
EC50 [15]: 0.0079 µg/mL
Kd [16]: 15 nM
